The source of these data is US20030059461A1.

For test [1], the target named is KDR/flk-1 receptor on 293/KDR or PAE/KDR cells (UniProt P35968). As to the kind of experiment: cell-based or functional assay.
Test [2] deals with S-peptide fragment of bovine pancreatic ribonuclease A (bovine). Nature of the test: cell-based or functional assay.

Chain of MBS-modified S-protein, 10-fold molar excess of sulfo-MBS (P61823 47-150): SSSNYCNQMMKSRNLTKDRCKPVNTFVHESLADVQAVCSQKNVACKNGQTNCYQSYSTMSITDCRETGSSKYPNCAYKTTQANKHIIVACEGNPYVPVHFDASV
Chain of S-protein fragment of bovine ribonuclease (Sigma) (P61823 47-150): as above
Chain of MBS-modified S-protein, 40-fold molar excess of sulfo-MBS (P61823 47-150): as above
Chain of MBS-modified S-protein, 2-fold molar excess of sulfo-MBS (P61823 47-150): as above
Chain of MBS-modified S-protein, 20-fold molar excess of sulfo-MBS (P61823 47-150): as above
Chain of KDR/flk-1 receptor on 293/KDR or PAE/KDR cells (P35968 20-1356 limits assumed): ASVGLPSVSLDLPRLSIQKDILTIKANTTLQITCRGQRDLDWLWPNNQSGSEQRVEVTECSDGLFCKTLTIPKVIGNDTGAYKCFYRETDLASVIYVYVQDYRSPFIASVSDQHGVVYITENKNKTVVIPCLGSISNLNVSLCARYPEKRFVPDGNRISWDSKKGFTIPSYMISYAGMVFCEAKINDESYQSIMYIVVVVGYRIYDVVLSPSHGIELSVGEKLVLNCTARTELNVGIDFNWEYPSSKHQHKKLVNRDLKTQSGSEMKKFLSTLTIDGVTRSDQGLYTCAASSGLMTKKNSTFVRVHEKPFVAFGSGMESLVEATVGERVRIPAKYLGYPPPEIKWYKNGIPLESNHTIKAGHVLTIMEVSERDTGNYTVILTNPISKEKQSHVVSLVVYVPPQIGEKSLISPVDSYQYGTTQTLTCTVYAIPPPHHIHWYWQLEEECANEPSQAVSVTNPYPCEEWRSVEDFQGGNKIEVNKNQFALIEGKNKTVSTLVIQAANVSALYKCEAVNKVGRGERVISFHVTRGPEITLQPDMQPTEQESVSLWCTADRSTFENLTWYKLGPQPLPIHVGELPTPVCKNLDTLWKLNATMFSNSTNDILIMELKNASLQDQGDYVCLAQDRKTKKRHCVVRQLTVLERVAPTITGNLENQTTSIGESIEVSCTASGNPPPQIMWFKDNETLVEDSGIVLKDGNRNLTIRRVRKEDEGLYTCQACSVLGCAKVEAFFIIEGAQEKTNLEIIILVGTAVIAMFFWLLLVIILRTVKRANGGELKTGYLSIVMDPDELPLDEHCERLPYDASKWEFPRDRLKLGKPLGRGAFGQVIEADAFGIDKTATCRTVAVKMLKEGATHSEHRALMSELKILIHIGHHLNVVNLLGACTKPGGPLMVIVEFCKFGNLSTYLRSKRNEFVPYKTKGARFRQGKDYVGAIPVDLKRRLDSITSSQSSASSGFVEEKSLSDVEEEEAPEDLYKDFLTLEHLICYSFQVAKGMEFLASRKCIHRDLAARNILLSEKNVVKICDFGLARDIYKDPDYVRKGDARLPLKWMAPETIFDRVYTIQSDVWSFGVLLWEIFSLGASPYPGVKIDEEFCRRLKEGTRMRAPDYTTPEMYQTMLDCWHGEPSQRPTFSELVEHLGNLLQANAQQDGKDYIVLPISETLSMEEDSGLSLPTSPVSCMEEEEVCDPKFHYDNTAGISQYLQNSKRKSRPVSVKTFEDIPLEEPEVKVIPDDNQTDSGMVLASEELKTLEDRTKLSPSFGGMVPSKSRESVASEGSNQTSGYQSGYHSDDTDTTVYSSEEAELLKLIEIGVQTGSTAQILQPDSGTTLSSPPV
Chain of Lip(Dox)-SP-FVEGF121 complex (P15692 other isoform, or with tags, fused parts or gaps): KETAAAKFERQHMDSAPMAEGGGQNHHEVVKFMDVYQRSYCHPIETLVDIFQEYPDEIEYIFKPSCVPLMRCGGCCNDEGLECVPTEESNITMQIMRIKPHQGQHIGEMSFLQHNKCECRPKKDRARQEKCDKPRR
Chain of Lip(Dox)-SP-FVEGF121 complex (P61823 47-150): as the sequence (P61823 47-150) above

The substance “Lip(Dox)-SP-FVEGF121 complex (from UniProt P15692 27-147; P61823 47-150)” displayed an IC50 of growth inhibition of 293/KDR cells in test [1] of 5 nM.

Consider “MBS-modified S-protein, 2-fold molar excess of sulfo-MBS (from UniProt P61823 47-150)”, for which the Ribonuclease Activity (%), S-tag Rapid Assay Kit; SulphoMBS molar excess: 2 in test [2] is 57%.

For the substance “MBS-modified S-protein, 10-fold molar excess of sulfo-MBS (from UniProt P61823 47-150)”, the Ribonuclease Activity (%), S-tag Rapid Assay Kit; SulphoMBS molar excess: 10 in test [2] amounted to 38%.

As to “MBS-modified S-protein, 20-fold molar excess of sulfo-MBS (from UniProt P61823 47-150)”, the Ribonuclease Activity (%), S-tag Rapid Assay Kit; SulphoMBS molar excess: 20 in test [2] came out at 36%.

“MBS-modified S-protein, 40-fold molar excess of sulfo-MBS (from UniProt P61823 47-150)” had a Ribonuclease Activity (%), S-tag Rapid Assay Kit; SulphoMBS molar excess: 40 in test [2] of 25%.

In test [2], “S-protein fragment of bovine ribonuclease (Sigma) (from UniProt P61823 47-150)” registered a Ribonuclease Activity (%), S-tag Rapid Assay Kit; SulphoMBS molar excess: none of 100%.
